{
  "source": "patent US20240218057A1",
  "about": "(ROCKEFELLER UNIVERSITY, published 2024)",
  "binders": {"B1": {"name": "C916 (antibody, V domains shown)", "VH": "EVQLVESGGGLVQPGGSLRLSCAASGFTFSNYDMHWVRQATGRGLEWVSTIGTAGDTYYPGSVKGRFTISRENAKNSLYLQMNSLRAGDTALYYCARVRYDSSGYFWSLDYWGQGTLVTVSS", "VL": "not shown"}, "B2": {"name": "C917 (antibody, V domains shown)", "VH": "B1 VH with R43K, E46D, L92V, Y100F, S102T", "VL": "not shown"}, "B3": {"name": "C927 (antibody, V domains shown)", "VH": "QVQLVESGGGVVQPGRSLRLSCVASGFTFSYFDMHWVRQAPGKGLEWVALISHDGSTTFYGDSARGRFTISRDNSRNTLDLQMNSLRPEDTAVYFCAKPVDAAMFDFWGQGTLVTVS", "VL": "SYELTQPPSVSVAPGKTARITCGGNNIGSKSVHWYQQRPGQAPVLVIYYDSDRPSGIPERFSGSNSGNTATLTISRVEAGDEADFYCQVWDRSTNHLVVFGGGTQLTVL"}, "B4": {"name": "C911 (antibody, V domains shown)", "VH": "QVQLVESGGGVVQPGGSLRLSCAASAFTFSSYAMHWIRQSPGKGLEWVAVISSDGSSKFYADSVKGRFTISRDNSKNTLYLQMNSLSAEDTAVYYCARDLENVLIEVALQDWGQGTLVTVSS", "VL": "DIQMTQSPSSLSASVGDRVTITCRASQSINSYLNWYQQKPGKAPKLLIYAASSLHSGVPSRFSGSGSGTDFTLTISSLQPEDFATYYCQQSYTTLALTFGGGTKVEIK"}, "B5": {"name": "C922 (antibody, V domains shown)", "VH": "QVQLVESGGGLVKPGGSLRLSCAGSGFTFTDYYMAWIRQAPGKGLEWVSYISTSDRFINYADSVKGRFTISRDDAKNSLYLQMNSLRAEDTAVYYCARDGGGYDRFDHWGQGTLVTVSS", "VL": "DIQMTQSPSSLSASVGDRVTITCQASQDISNLLNWYQQKAGKAPKLLIYDASNLETGVPSRFSGSGSGTDFTFTISSLQPEDIATYYCLQYDNLPLTFGQGTKLEIK"}, "B6": {"name": "C923 (antibody, V domains shown)", "VH": "QVQLVESGGGLVKPGGSLRLSCAASGFTFSDYHMTWIRQAPGKGLEWVSYISNRSTYRNYADSVKGRFTISRDNAKNSLYLQMNSLRAEDTAVYYCARDGGAYDRFDYWGQGTLVTVSS", "VL": "B5 VL with S30K, N31K, L32F, A40P, F71L, L89Q"}, "B7": {"name": "C914 (antibody, V domains shown)", "VH": "QVQLQESGPGLVKPSQTLSLTCTVSGGSITSGDYYWTWIRQPPGKGLEWIGYIYYSGNTYYNLSLRSRITISEDTSKNQFSLKLRSVTAADTAVYYCARAMITFGGVIVVLDYWGQGTLVTVSS", "VL": "QSALTQPPSASGSPGQSVTISCTGTSTDVGGYNFVSWYQQHPGKAPKLMIYEVSKRPSGVPDRFSGSKSGNTASLTVSGLQAEDEADYYCSSYAGSNILYVFGTGTKVTVL"}, "B8": {"name": "C915 (antibody, V domains shown)", "VH": "QVQLQESGPGLVKPSQTLSLTCTVSGGSISSGDYYWSWIRQPPGKGLEWIGYIYYSDSTYYNPSLRTRVTISVDTSKNQFSLKLTSVTAADTAVYYCARAMITFGGVIVLYDYWGQGTLVTVSS", "VL": "B7 VL with T27S, F34Y, S54T, D62A, N97I, I98L"}, "B9": {"name": "C920 (antibody, V domains shown)", "VH": "QLQLQESGPGLVKPSETLSLTCAVSGGSISNSPFYWGWIRQPPGKGLECIGSIYYSGSTYYNPSLKSRVTISVDTSKKQFSLKLSSVTAADTAVYYCARHFADGSGRVVDSWGQGILVTVSS", "VL": "EIVLTQSPATLSLSPGERATLSCRASQSVSSYLAWYQQKPGQAPSLLIYDVSNRATGIPARFSGSGSGTDFTLTISSLEPEDFAVYYCQQRINWPLYTFGQGTKLEIK"}, "B10": {"name": "C921 (antibody, V domains shown)", "VH": "B9 VH with G37A, S56T, K77T, S85R, S111Y, I116T", "VL": "B9 VL with S30T, S31T, S45R, N53S, I92S"}, "B11": {"name": "C908 (antibody, V domains shown)", "VH": "EVQLVQSGAEVKKPGESLKISCKASGYSFTIYWIGWVRQMPGKGLEWMGIIYPGESETRYSPSFQGQVTISADKSISTAYLQWRSLKASDTAMYYCARGGPPGGVKLELTDYWGQGTLVTVSS", "VL": "not shown"}, "B12": {"name": "C924 (antibody, V domains shown)", "VH": "QVQLVESGGGVVQPGRSLRLSCAASGFTFSSYGMHWVRQAPGKGLEWVAVISDDGSNKYYADSVKGRFTISRDNSKNTLYLQMNSLRAEDTAVYYCAKSWWLSENWFDPWGQGTLVTVSS", "VL": "EIVMTQSPATLSVSPGERATLSCRASQSVSSNLAWYQQKPGQAPRLLIYGASTRATGIPARFSGTGSGTEFTLTISSLQSEDFAVYYCQQYNNWPLTFGGGTKVEIK"}, "B13": {"name": "C925 (antibody, V domains shown)", "VH": "B12 VH with S31N, M34L, I51T, S56N, N57R, N74D, S85N, A88T", "VL": "B12 VL with S30R, K39R, S52F, G64V, T65S, S76D"}, "B14": {"name": "C912 (antibody, V domains shown)", "VH": "QVQLVESGGGVVQPGRSLRLSCAASGFSFSTYTMHWVRQTPDKGLEWVAVISDDGKNKYYADSMKGRFTISRDNSKNTLYLQMSSLRPEDTAVYYCARDLENVMIEVALESWGQGTLVTVSS", "VL": "not shown"}, "B15": {"name": "C928 (antibody, V domains shown)", "VH": "QVQLVESGGGVVQPGRSLRLSCAASGFTFSFFDMHWVRQAPGKGLEWVADISYDGSNQYYGDSVKGRFTISRDNSKSTLYLQMNSLRAEDTAVYYCAKPVDTAMFDSWGQGTLVTVSS", "VL": "SYELTQPPSVSVAPGETARITCGGNNIGHKSVHWYQQQPGQAPVLVIYYDSERPSGIPERFSGSNSGNTATLTISRVEAGDEADYHCQVWDGGNDHLVIFGGGTKLTVL"}, "B16": {"name": "C909 (antibody, V domains shown)", "VH": "QVQLVQSGAEVKKPGASVKVSCRASGYTFPNYDLNWVRQATGQGLEWMGWMNPNSGNTGYAQKFQGRITMTRITSISTAYMELSSLRSEDTAVYYCARGRANWNSNFLLDSWGQGTLVTVSS", "VL": "QSALTQPASVSGSPGQSITISCTGTSSDVGGYNLVSWYQQYPGNVPKLMIYEDAKRPSGVSNRFSGSKSANTASLTISGLQAEDEADYYCCSYAGSSTRYVFGTGTKVTVL"}, "B17": {"name": "C918 (antibody, V domains shown)", "VH": "QVQLVESGGGLVKPGGSLRLSCTASGFTFSDYYMTWLRQAPGKGLEWVSYISSTSPYTSYADSVKGRFTISRDNARNSVYLQMNSLRAEDTAIYYCARVPPPQRLHPFDVWGQGTMVTVSS", "VL": "DIQMTQSPSTLSASVGDRVTITCRASQSISSWLAWYQQKPGKAPKLLIYQASSLESGVPSRFSGSGSGTDFTLTISSLQPDDFATYYCQQYFRYSWTFGQGTKVEI"}, "B18": {"name": "C929 (antibody, V domains shown)", "VH": "EVQLVESGGGLIQPGGSLRLSCAASGFTVSSNYMTWVRQAPGKGLEWVSVIYSGGTTYYADSVKGRFTISRDNSKNTLYLQMNSLRAEDTAVYYCARDLVVWGMDVWGQGTTVTVSS", "VL": "DIQLTQSPSFLSASVGDRVTITCRASQGISSYLAWYQQKPGKAPKLLIYAASTLQSGVPSRFSGSGSGTEFTLTISSLQPEDFATYYCQLLNSYPYTFGQGTKLEIK"}, "B19": {"name": "C930 (antibody, V domains shown)", "VH": "B18 VH with I12F, S21A, F27I, T35S, A40P, S53A, T56S, Y58F, F67L, M82I", "VL": "B18 VL with L90Q, S93T"}, "B20": {"name": "C910 (antibody, V domains shown)", "VH": "QVQLVQSGAAVKKPGASVKVSCKASGYTFTSYDINWVRQAPGQGLEWMGWMNPNSGNTGFAQRFQGRATLSRDTSITTAYMELTTLRSEDTAVYYCARGRANYNSKFLLDNWGQGTLVTVSS", "VL": "QSALTQPASVSGSPGQSITISCTGTSSDVGSYNLVSWYQQHPGTAPKLMIYEGSKRPSGVSDRFSGYKSGNTASLTISGLQADDEADYYCCSFAGSTTRYVFGTGTRVTVL"}},
  "note": "Where a chain is given by its changes, count along the chain named.",
  "data": [
    {"target": "T1, SARS-COV-2 RBD (SARS-COV-2, UniProt P0DTC2 319-539)", "T1 construct": "also called WT RBD", "test": "ELISA, RBD coated on plate", "units": {"EC50": "ng/mL"}, "values": [
      {"binder": "B1", "EC50": 1.97},
      {"binder": "B2", "EC50": 1.05},
      {"binder": "B3", "EC50": 3.77},
      {"binder": "B4", "EC50": 2.36},
      {"binder": "B5", "EC50": 2.42},
      {"binder": "B6", "EC50": 1.95},
      {"binder": "B7", "EC50": 1.59},
      {"binder": "B8", "EC50": 3.49},
      {"binder": "B9", "EC50": 2.35},
      {"binder": "B10", "EC50": 3.91},
      {"binder": "B11", "EC50": 1.27},
      {"binder": "B12", "EC50": 2.5},
      {"binder": "B13", "EC50": 2.26},
      {"binder": "B14", "EC50": 2.45},
      {"binder": "B15", "EC50": 4.14},
      {"binder": "B16", "EC50": 3.24},
      {"binder": "B17", "EC50": 1.78},
      {"binder": "B18", "EC50": 2.07},
      {"binder": "B19", "EC50": 1.24},
      {"binder": "B20", "EC50": 2.47}
    ]}
  ]
}
